The experiment deals with T1, human RANK-L (human, UniProt O14788 140-317).
T1 chain: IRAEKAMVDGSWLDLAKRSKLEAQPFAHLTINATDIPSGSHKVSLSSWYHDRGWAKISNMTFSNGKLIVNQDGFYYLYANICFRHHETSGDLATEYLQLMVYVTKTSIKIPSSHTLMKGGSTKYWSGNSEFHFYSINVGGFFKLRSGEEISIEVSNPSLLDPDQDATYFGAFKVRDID
Briefly: AlphaScreen competition.

B1: RANKL13hum5 (VHH)
VHH: EVQLVESGGGLVQPGGSLRLSCAASGFTFSSYPMGWFRQAPGKGREFVSSITGSGGSTYYADSVKGRFTISRDNAKNTLYLQMNSLRPEDTAVYYCAAYIRPDTYLSRDYRKYDYWGQGTLVTVSS
In the case of B1, the half-inhibitory concentration (IC50) is 0.167 nM.

B2: RANKL13hum5_D62E (VHH)
VHH: EVQLVESGGGLVQPGGSLRLSCAASGFTFSSYPMGWFRQAPGKGREFVSSITGSGGSTYYAESVKGRFTISRDNAKNTLYLQMNSLRPEDTAVYYCAAYIRPDTYLSRDYRKYDYWGQGTLVTVSS
B2 came in with an IC50 of 0.156 nM. The IC50 values of the last two molecules are within 1.5-fold of each other.

B3: RANKL13 (VHH)
VHH: EVQLVESGGGLVQAGGSLRLSCAASGRTFRSYPMGWFRQAPGKEREFVASITGSGGSTYYADSVKGRFTISRDNAKNTVYLQMNSLRPEDTAVYSCAAYIRPDTYLSRDYRKYDYWGQGTQVTVSS
In turn, B3 showed an IC50 of 0.228 nM.

Source of the values: patent US20110002929A1 (published 2011).
